Data as given in PMC6080896.

Biological target: Venus-tagged CaV1.1 CI (Ven-CaV1.1 CI) (UniProt P07293)
Assay: FRET or BRET

Chain of Cer-tagged stac3 variant W[284]S (Native American myopathy) (natural protein) (Q96MF2 whole entry, change not shown): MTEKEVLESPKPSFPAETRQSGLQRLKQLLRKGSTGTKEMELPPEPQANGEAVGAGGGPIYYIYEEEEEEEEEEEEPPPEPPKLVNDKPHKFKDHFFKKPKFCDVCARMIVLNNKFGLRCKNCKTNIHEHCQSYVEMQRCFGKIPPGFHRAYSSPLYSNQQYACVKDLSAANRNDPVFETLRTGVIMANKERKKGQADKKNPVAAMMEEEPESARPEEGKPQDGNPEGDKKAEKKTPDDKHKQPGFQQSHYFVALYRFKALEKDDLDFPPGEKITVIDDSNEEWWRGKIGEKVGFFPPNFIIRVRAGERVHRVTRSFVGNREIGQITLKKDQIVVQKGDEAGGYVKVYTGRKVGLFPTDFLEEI
Chain of Cer-tagged stac3 variant L[111]Δ (natural protein) (Q96MF2 whole entry, stated change not applied): as the sequence (Q96MF2 whole entry, change not shown) above
Chain of Cer-tagged stac3 variant K[288]* (domain or fragment) (Q96MF2 whole entry, change not shown, the tested form may be a part): as the sequence (Q96MF2 whole entry, change not shown) above

fold weakening of affinity against WT stac3 [fold] | further results | Substance
– | Kd: 400 nM | Cer-tagged stac3 (wild type) (natural protein)
– | fold reduction of binding against WT stac3: 2 fold | Cer-tagged stac3 variant K[288]* (domain or fragment)
10 | – | Cer-tagged stac3 variant L[111]Δ (natural protein)
10 | – | Cer-tagged stac3 variant W[284]S (Native American myopathy) (natural protein)
